Measurements taken from the Human Domainome abundance scans (Beltran et al. 2025).
± gives the uncertainty stated by the source.

B1: Tyrosine-protein kinase BTK, residues 215 to 273; numbered along this chain, Q06187 (parent)
chain: ELKKVVALYDYMPMNANDLQLRKGDEYFILEESNLPWWRARDKNGQEGYIPSNYVTEAE

Variants of: B1
Experiment: abundance fitness (aPCA) (normalised: wild type 0, dead -1); higher = more abundant; growth selection in yeast, the domain comes from the species named
Conditions: Homo sapiens
With N53F the abundance fitness was -0.137 ± 0.066.
Variant Q20G has an abundance fitness of -0.001 ± 0.045.
Variant E32W has an abundance fitness of -0.09 ± 0.07.
Work on V55F yielded an abundance fitness of -0.318 ± 0.061.
L35A showed an abundance fitness of -0.08 ± 0.057.
Work on E1A yielded an abundance fitness of -0.172 ± 0.054.
For A16N, the abundance fitness was -0.045 ± 0.055.
In the case of L30G, the abundance fitness is reported as -0.398 ± 0.046.
Q46D showed an abundance fitness of -0.077 ± 0.079.
Work on R39A yielded an abundance fitness of -0.179 ± 0.043.
Y9Q showed an abundance fitness of 0.098 ± 0.051.
E59K gave an abundance fitness of -0.008 ± 0.08.
Work on E26R yielded an abundance fitness of -0.068 ± 0.038.
Work on R22Q yielded an abundance fitness of -0.011 ± 0.05.
Variant P36C has an abundance fitness of -0.072 ± 0.049.
K3D showed an abundance fitness of -0.22 ± 0.08.
D18Y gave an abundance fitness of 0.025 ± 0.051.
In the case of T56C, the abundance fitness is reported as -0.032 ± 0.092.
Variant Y11H has an abundance fitness of -0.155 ± 0.07.
Y11Q gave an abundance fitness of -0.316 ± 0.065.
For R39T, the abundance fitness was -0.111 ± 0.06.
In the case of A7H, the abundance fitness is reported as -0.804 ± 0.11.
Variant E32I has an abundance fitness of -0.202 ± 0.12.
Work on A16Y yielded an abundance fitness of -0.17 ± 0.06.
G24H showed an abundance fitness of -0.178 ± 0.11.
K3N gave an abundance fitness of -0.112 ± 0.056.
A40E showed an abundance fitness of -0.965 ± 0.11.
Work on E32F yielded an abundance fitness of -0.173 ± 0.076.
For A7N, the abundance fitness was -1.11 ± 0.15.
Work on K43C yielded an abundance fitness of -0.033 ± 0.056.
For W38K, the abundance fitness was -0.008 ± 0.043.
For P13R, the abundance fitness was -0.153 ± 0.036.
In the case of Y49E, the abundance fitness is reported as -0.088 ± 0.057.
With N15V the abundance fitness was 0.052 ± 0.026.
Variant Y27T has an abundance fitness of -0.698 ± 0.057.
D18Q showed an abundance fitness of 0.018 ± 0.043.
N17L gave an abundance fitness of -0.019 ± 0.031.
N44S gave an abundance fitness of -0.05 ± 0.049.
I50S showed an abundance fitness of -1.05 ± 0.12.
For V55S, the abundance fitness was -0.695 ± 0.05.
Variant A58T has an abundance fitness of -0.051 ± 0.053.
With M14D the abundance fitness was -0.013 ± 0.076.
Variant A58G has an abundance fitness of -0.01 ± 0.036.
For P36F, the abundance fitness was -0.437 ± 0.15.
Variant E31Q has an abundance fitness of 0.072 ± 0.058.
In the case of N53I, the abundance fitness is reported as -0.238 ± 0.091.
D18N gave an abundance fitness of 0.009 ± 0.057.
In the case of R22N, the abundance fitness is reported as -0.012 ± 0.079.
In the case of R39Y, the abundance fitness is reported as -0.171 ± 0.07.
S52W showed an abundance fitness of -0.03 ± 0.049.
Variant Y9N has an abundance fitness of 0.07 ± 0.057.
In the case of E47Q, the abundance fitness is reported as -0.113 ± 0.059.
In the case of T56Y, the abundance fitness is reported as -0.191 ± 0.064.
For G48L, the abundance fitness was -0.993 ± 0.052.
With K3L the abundance fitness was -0.102 ± 0.034.
Variant N34R has an abundance fitness of -0.002 ± 0.043.
A58I showed an abundance fitness of -0.223 ± 0.071.
For W38T, the abundance fitness was -0.009 ± 0.037.
K23D showed an abundance fitness of -0.522 ± 0.17.
E32H showed an abundance fitness of -0.114 ± 0.079.
Work on G24N yielded an abundance fitness of -0.096 ± 0.093.
For E1Q, the abundance fitness was -0.121 ± 0.12.
With K4R the abundance fitness was -0.072 ± 0.041.
With G24L the abundance fitness was -0.382 ± 0.035.
With E1V the abundance fitness was -0.074 ± 0.048.
E1R showed an abundance fitness of -0.15 ± 0.099.
Variant K23V has an abundance fitness of -0.072 ± 0.038.
I29A gave an abundance fitness of -0.194 ± 0.046.
With Y11C the abundance fitness was -0.202 ± 0.05.
For K23A, the abundance fitness was -0.024 ± 0.049.
In the case of E47D, the abundance fitness is reported as -0.011 ± 0.08.
Y11L gave an abundance fitness of -0.094 ± 0.031.
Q46P showed an abundance fitness of -0.616 ± 0.073.
Y9L showed an abundance fitness of 0.056 ± 0.029.
With A58D the abundance fitness was -0.092 ± 0.06.
With M12A the abundance fitness was 0.017 ± 0.038.
D25F showed an abundance fitness of -0.107 ± 0.063.
L8F showed an abundance fitness of -0.222 ± 0.056.
In the case of G48W, the abundance fitness is reported as -1.02 ± 0.087.
E57W gave an abundance fitness of -0.051 ± 0.042.
D42P gave an abundance fitness of -0.936 ± 0.12.
With N15A the abundance fitness was -0.077 ± 0.034.
V5N gave an abundance fitness of -0.839 ± 0.069.
With W38A the abundance fitness was -0.017 ± 0.061.
Work on W38S yielded an abundance fitness of 0.042 ± 0.032.
E59W gave an abundance fitness of -0.081 ± 0.064.
L8G gave an abundance fitness of -0.338 ± 0.027.
Y54V gave an abundance fitness of -0.203 ± 0.048.
In the case of G45Q, the abundance fitness is reported as -0.144 ± 0.05.
With N53T the abundance fitness was -0.054 ± 0.052.
Work on P36L yielded an abundance fitness of -0.094 ± 0.058.
Work on Y9G yielded an abundance fitness of -0.018 ± 0.031.
With A40L the abundance fitness was -0.181 ± 0.034.
Y54T showed an abundance fitness of -0.235 ± 0.059.
V5Q gave an abundance fitness of -0.329 ± 0.059.
S52K showed an abundance fitness of 0.088 ± 0.071.
In the case of N44W, the abundance fitness is reported as -0.056 ± 0.065.
Y11E gave an abundance fitness of -0.562 ± 0.1.
In the case of W38H, the abundance fitness is reported as -0.029 ± 0.071.
Work on P51V yielded an abundance fitness of -0.379 ± 0.038.
Work on N17R yielded an abundance fitness of -0.001 ± 0.033.
With N34D the abundance fitness was 0.073 ± 0.074.
Work on E59D yielded an abundance fitness of -0.128 ± 0.086.
With D42L the abundance fitness was -0.81 ± 0.052.
With I29M the abundance fitness was -0.229 ± 0.043.
For D42C, the abundance fitness was -0.119 ± 0.055.
Work on W38Y yielded an abundance fitness of 0.044 ± 0.063.
With P51T the abundance fitness was -0.528 ± 0.067.
Work on K43E yielded an abundance fitness of -0.005 ± 0.047.
Variant E26C has an abundance fitness of -0.084 ± 0.061.
With M12Q the abundance fitness was -0.009 ± 0.055.
In the case of L35R, the abundance fitness is reported as -0.006 ± 0.031.
E31D showed an abundance fitness of -0.058 ± 0.078.
N53E showed an abundance fitness of -0.016 ± 0.041.
Variant Q20R has an abundance fitness of -0.013 ± 0.045.
For M14F, the abundance fitness was 0.022 ± 0.044.
In the case of L21N, the abundance fitness is reported as -0.806 ± 0.22.
For K3C, the abundance fitness was -0.223 ± 0.09.
In the case of W37P, the abundance fitness is reported as -0.227 ± 0.052.
For D42K, the abundance fitness was -0.575 ± 0.085.
In the case of D25S, the abundance fitness is reported as -0.071 ± 0.035.
Work on K4A yielded an abundance fitness of -0.168 ± 0.048.
Variant F28P has an abundance fitness of -0.631 ± 0.1.
For L30S, the abundance fitness was -0.175 ± 0.038.
Work on R41Q yielded an abundance fitness of -0.006 ± 0.057.
For S52Q, the abundance fitness was -0.032 ± 0.06.
Work on Q20W yielded an abundance fitness of -0.131 ± 0.066.
Y54S showed an abundance fitness of 0.022 ± 0.037.
Variant N34C has an abundance fitness of 0.046 ± 0.1.
M12D showed an abundance fitness of -0.04 ± 0.054.
N53D showed an abundance fitness of -0.043 ± 0.065.
For F28G, the abundance fitness was -0.049 ± 0.041.
L19D showed an abundance fitness of -0.936 ± 0.086.
In the case of V55H, the abundance fitness is reported as -0.852 ± 0.11.
Work on A7E yielded an abundance fitness of -0.813 ± 0.054.
For K43Q, the abundance fitness was 0.009 ± 0.057.
In the case of N17A, the abundance fitness is reported as -0.041 ± 0.035.
For Y27F, the abundance fitness was -0.157 ± 0.052.
In the case of E1K, the abundance fitness is reported as -0.035 ± 0.087.
G48A gave an abundance fitness of -0.825 ± 0.073.
Variant Y49Q has an abundance fitness of 0.064 ± 0.063.
Work on A40I yielded an abundance fitness of -0.266 ± 0.076.
P36E gave an abundance fitness of -0.024 ± 0.057.
For W37H, the abundance fitness was 0.014 ± 0.062.
For Y11R, the abundance fitness was 0.032 ± 0.032.
P13F showed an abundance fitness of -1.08 ± 0.27.
Work on L2M yielded an abundance fitness of -0.055 ± 0.056.
With L30N the abundance fitness was -0.346 ± 0.08.
In the case of A58C, the abundance fitness is reported as -0.058 ± 0.06.
In the case of K3T, the abundance fitness is reported as -0.117 ± 0.062.
E31V showed an abundance fitness of -0.119 ± 0.04.
Variant N17Y has an abundance fitness of -0.088 ± 0.056.
E32M gave an abundance fitness of -0.082 ± 0.064.
V5I gave an abundance fitness of -0.189 ± 0.035.
With V5G the abundance fitness was -0.425 ± 0.039.
With S33L the abundance fitness was -0.06 ± 0.031.
For K4D, the abundance fitness was -0.287 ± 0.17.
Variant Q46E has an abundance fitness of -0.005 ± 0.073.
With E31W the abundance fitness was -0.105 ± 0.036.
For N34W, the abundance fitness was -0.032 ± 0.06.
V5L showed an abundance fitness of -0.244 ± 0.035.
In the case of G48T, the abundance fitness is reported as -0.886 ± 0.069.
N17T gave an abundance fitness of 0.002 ± 0.051.
With E59V the abundance fitness was 0.023 ± 0.075.
E57Y gave an abundance fitness of -0.018 ± 0.083.
Variant N53C has an abundance fitness of -0.164 ± 0.077.
V55N showed an abundance fitness of -0.808 ± 0.21.
